The values that follow come from patent US20230331820A1 (GlaxoSmithKline, published 2023).

Assay [1] deals with T1, gEgI WT: HSV2 gEgI heterodimer comprising gE and gI wildtype ectodomains (HSV2, UniProt P89475 21-416; P06764 21-256). Briefly: SPR binning; gEgI captured by mAb 9.
For assay [2], the target named is T1, gEgI WT: HSV2 gEgI heterodimer …. Briefly: SPR binning; gEgI captured by mAb 39.
Assay [3] has as its target gE WT: HSV2 gE wildtype ectodomain (HSV2, UniProt P89475 21-416). Briefly: ELISA, supernatant.
Assay [4] has as its target T2, gI WT: HSV2 gI wildtype ectodomain (HSV2, UniProt P06764 21-256). Briefly: ELISA, supernatant.
For assay [5], the target named is gEgI mutant (338): HSV2 gEgI mutant heterodimer comprising gE and gI ectodomains with insertion of a (HSV2, UniProt P89475 21-416; P06764 21-256). As to the kind of experiment: ELISA, supernatant.
Assay [6] has as its target T1, gEgI WT: HSV2 gEgI heterodimer …. As to the kind of experiment: SPR binning; gEgI captured by mAb 5.
The target is the same in assay [7]. As to the kind of experiment: SPR binning; gEgI captured by mAb 19.
Assay [8] has the same target. As to the kind of experiment: Biacore SPR, gEgI HEK BMP1063 at 10 µg/ml for 180 s over the mAb. In general terms: In SPR one partner is held on a chip, and binding of the other changes the refractive index at the surface.
For assay [9] the target is unchanged. As to the kind of experiment: SPR binning; gEgI captured by mAb 34.
The target is the same in assay [10]. As to the kind of experiment: SPR binning; gEgI captured by mAb 42.
For assay [11] the target is unchanged. Briefly: SPR binning; gEgI captured by mAb 17.
Assay [12] has the same target. As to the kind of experiment: SPR binning; gEgI captured by mAb 10.
For assay [13] the target is unchanged. Briefly: SPR binning; gEgI captured by mAb 24.
For assay [14] the target is unchanged. As to the kind of experiment: SPR binning; gEgI captured by mAb 15.
Assay [15] shares this target. Briefly: Biacore SPR, gEgI CHO BMP1181 at 10 µg/ml for 180 s over the mAb.
Assay [16] shares this target. As to the kind of experiment: SPR binning; gEgI captured by mAb 40.
For assay [17] the target is unchanged. Briefly: SPR binning; gEgI captured by mAb 45.
Assay [18] has the same target. Briefly: SPR binning; gEgI captured by mAb 20.
The target of assay [19] is gEgI mutant (P317R): HSV2 gEgI mutant heterodimer comprising gE and gI ectodomains with mutation P317R in gE (HSV2, UniProt P89475 21-416; P06764 21-256). Briefly: ELISA, supernatant.
Assay [20] concerns the target gEgI mutant (P319D): HSV2 gEgI mutant heterodimer comprising gE and gI ectodomains with mutation P319D in gE (HSV2, UniProt P89475 21-416; P06764 21-256). Briefly: ELISA, supernatant. On the technique in general: In an ELISA, binding on a coated surface is turned into a signal by an enzyme label.
Assay [21] has as its target gEgI mutant (R320D): HSV2 gEgI mutant heterodimer comprising gE and gI ectodomains with mutation R320D in gE (HSV2, UniProt P89475 21-416; P06764 21-256). As to the kind of experiment: ELISA, supernatant.
For assay [22], the target named is T1, gEgI WT: HSV2 gEgI heterodimer …. Briefly: ELISA, supernatant.
Assay [23] concerns the target T2, gI WT: HSV2 gI wildtype ectodomain. As to the kind of experiment: ELISA, supernatant. The source holds these as a separate data set.

Where two headings read alike, the source gives them in different places.

B1: mAb clone 19 (antibody, V domains shown)
VH: QVQLQQSGAELVRPGVSVKISCKGSGYTFTDYAMHWVKQSHAKSLEWIGVISTYYGDARYNQKFKGKATMTVDKSSSTAYMELARLTSEDSAIYYCARRGITVVADYAMDYWGQGTSVTVSS
VL: QIVLTQSPAIMSASPGEKVTMSCSASSSVTYMHWYQQKSGTSPKRWIYDTSKLASGVPARFSGSGSGTSYSLTISSMEAEDAATYYCQQWSSNPPTFGGGTKLEIK
For the molecule B1, the RU is 6.4 RU in assay [1]; 16.2 RU in assay [2]; 17.2 RU in [6]; -3.4 RU in [7]; 9.3 RU in assay [9]; 16.3 RU in [10]. Besides, the RU was 18.1 RU in [11]; 24.4 RU in assay [12]; 3.2 RU in assay [13]; 23 RU in assay [14]; 13.9 RU in [16]; 9.2 RU in assay [17]. Also, in assay [18], the RU was 9 RU. For the same molecule, the binding result in assay [3] was “no binding”; in assay [4] it was “no binding”; in assay [5], “binds”. Moreover, the “RU Ag/250 RU mAbs” value stood at 7.88 RU Ag/250 RU mAbs in assay [8] and 6.49 RU Ag/250 RU mAbs in [15].

B2: mAb clone 44 (antibody, V domains shown)
VH: EVQLQQSGPELEKPGASVKISCKASGYSFTGYNMNWVKQSNGKSLEWIGNIDPYYGGIRYNQKFKGKATLTVDKSSSTAYMQLKSLTSEDSAVYYCAREDRYLVHYYAMDYWGQGTSVTVSS
VL: QIVLTQSPAIMSASPGEKVTMTCSASSSISYMHWYQQKPGTSPKRWIYDTSKLASGVPARFSGSGSGTSYSLTISSMEAEDAATYYCHQRSSYPYTFGGGTKLEIK
For B2, the binding result in assay [19], in assay [20], in assay [21], in assay [3], in [4] and in [5] was “binds” each time. The binding result in [22] is given as “binds”.

B3: mAb clone 15 (antibody, V domains shown)
VH: QVQLKESGPGLVAPSQSLSITCTVSGFSLTSYGVSWVRQPPGKGLEWLGVIWGDGSTNYHSALISRLSISKDNSKSQVFLKLNSLQTDDTATYYCAKPDLYYDSPYAMDYWGQGTSVTVSS
VL: DIQMTQSPASLSASVGETVTITCRASGNIHNYLAWYQQKQGKSPQLLVYNAKTLADGVPSRFSGSGSGTQYSLKINSLQPEDFGSYYCQHFWSTPWTFGGGTKLEIK
For B3, the RU in assay [1] is 12.7 RU; in assay [2], 11.7 RU; in [6], 13.5 RU; in assay [7], 7.6 RU; in [9], 5.9 RU; in assay [10], 9.8 RU. For the same molecule, the RU in assay [11] is 3.4 RU; in assay [12], 13.4 RU; in assay [13] it was 9.9 RU; in assay [14] it was -4.9 RU; in assay [16], 6.9 RU; in assay [17], 8.7 RU. Also, in assay [18], the RU is 13 RU. For the same molecule, the binding result in assay [3] is on record as “no binding”; in assay [4], “no binding”; in assay [5], “binds”. The “RU Ag/250 RU mAbs” value in [8] came out at 31.5 RU Ag/250 RU mAbs; in [15], 30.4 RU Ag/250 RU mAbs.

B4: mAb clone 35, 36 (antibody, V domains shown)
VH: QVQLKESGPGLVAPSQSLSITCTVSGFSLTSYGVHWVRQPPGKGLEWLGVIWAGGSTNYNSALMSRLSISKDNSKSQVFLKMNSLQTDDTAMYYCATDGYKFFYYAMDYWGQGTSVTVSS
VL: DIVMTQAAPSVPVTPGESVSISCRSSKSLLHSNGNTYLYWFLQRPGQSPQLLIYRMSNLASGVPDRFSGSGSGTAFTLRISRVEAEDVGVYYCMQHLEYPFTFGSGTKLEIK
With B4, the binding result in assay [19], in assay [20], in assay [21], in assay [3], in assay [4] and in [5] was “binds” throughout. For the same molecule, the binding result in assay [22] was “binds”.

B5: mAb clone 14 (antibody, V domains shown)
VH: QVQLQQSGAELMKPGASVKISCKATGYTFSSYWIEWVKQRPGHGLEWIGEILPGSGSTNYNEKFKGKATFTADTSSNTAYMQLSSLTSEDSAVYYCASGSAGNYYGSSYEAMDYWGQGTSVTVSS
VL: DIVLTQSPASLAVSLGQRATISCRASKSVSTSGYSYMHWYQQKPGQPPKLLIYLASNLESGVPARFSGSGSGTDFTLNIHPVEEEDAATYYCQHSRELPLTFGAGTKLELK
notes: also called GEGI/14IIa
Take B5: the binding result in assay [19], in assay [20], in [21], in [3], in assay [5] and in assay [22] was “binds” throughout. The binding result in assay [23] is on record as “no binding”.

B6: mAb clone 34 (antibody, V domains shown)
VH: EVKLVESGGGLVQPGGSLKLSCATSGFTFSDYYMYWVRQTPEKRLEWVAYISNGGDSTYYPDTVKGRFTISRDNAKNTLYLQMSRLKSEDTAMYYCARSYYGNPFPYWGQGTLVTVSA
VL: ENVLTQSPAIMSASPGEKVTMTCRASSSVSSSYLHWYQQKSGASPKLWIYSTSNLASGVPARFSGSGSGTSYSLTISSVEAEDAATYYCQQYSGYPLTFGAGTKLELK
In the case of B6, the RU in assay [1] was -3.9 RU; in assay [2] it was -1.5 RU; in assay [6], -2.1 RU; in assay [7] it was -8.4 RU; in assay [9] it was -11.1 RU; in assay [10], -2.4 RU. The RU in assay [11] is -3.3 RU; in assay [12], 1.3 RU; in assay [13] it was -3.6 RU; in assay [14], -2.7 RU; in assay [16] it was -4.1 RU; in [17] it was -6.3 RU. In [18], this molecule returned an RU of 0.4 RU. In addition, the binding result is “no binding” in assay [3], “binds” in [5] and “no binding” in assay [23]. In addition, the figures for the “RU Ag/250 RU mAbs” value in assay [8] and in [15] were 14.4 RU Ag/250 RU mAbs and 12.8 RU Ag/250 RU mAbs, respectively.
